Read-outs that look alike come from different tables or passages of the source.

This is an account of results in publication PMC2580753.

Common to all, as to experiment: SPR
(In general: Surface plasmon resonance follows binding to a sensor surface in real time, without labels.)

Assay [1] deals with Monomeric myeloma patient-derived IgA1λ (mIgA1λ) (human).
The target in assay [2] is Monomeric myeloma patient-derived IgA1κ (mIgA1κ) (human).
Assay [3] addresses Monomeric IgA1 (Mce), a naturally undergalactosylated myeloma IgA1 protein (human).
Assay [4] addresses Deglycosylated mIgA1κ (N-glycans removed enzymatically) (human).
For assay [5], the target named is Monomeric myeloma patient-derived IgA1κ (mIgA1κ) (human). The source holds these as a separate data set.
Assay [6] deals with Deglycosylated mIgA1κ (N-glycans removed enzymatically) (human). This is another data set of the same source.
Assay [7] deals with Monomeric myeloma patient-derived IgA1κ (mIgA1κ) (human). The source holds these as a separate data set.
In assay [8] the target is mIgA1κ (monomeric myeloma IgA1, kappa light chain) (UniProt P01876). Conditions: pH 7.4, 25 °C, 150 mM NaCl, TBS-P: 20 mM Tris.
mIgA1κ (monomeric myeloma IgA1, kappa light chain), sequence (P01876 whole entry, the tested form may be a part): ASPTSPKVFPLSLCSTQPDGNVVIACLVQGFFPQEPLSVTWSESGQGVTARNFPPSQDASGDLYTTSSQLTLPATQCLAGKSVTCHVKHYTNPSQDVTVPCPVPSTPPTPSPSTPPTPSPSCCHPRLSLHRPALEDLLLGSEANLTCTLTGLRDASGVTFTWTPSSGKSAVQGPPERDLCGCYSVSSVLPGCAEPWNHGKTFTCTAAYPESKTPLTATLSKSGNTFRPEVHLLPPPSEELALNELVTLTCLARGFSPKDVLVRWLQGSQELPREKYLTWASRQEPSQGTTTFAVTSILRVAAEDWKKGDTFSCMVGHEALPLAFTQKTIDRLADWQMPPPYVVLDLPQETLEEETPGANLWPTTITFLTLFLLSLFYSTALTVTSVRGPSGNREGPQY
For assay [9], the target named is Fcα (IgA1-Fc core fragment, CH2-CH3) (UniProt P01876). Conditions: pH 7.4, 25 °C, 150 mM NaCl, TBS-P: 20 mM Tris.
Fcα (IgA1-Fc core fragment, CH2-CH3), sequence (P01876 whole entry, the tested form may be a part): as above
Assay [10] has as its target mIgA1κ (monomeric myeloma IgA1, kappa light chain) (UniProt P01876). Conditions: pH 7.4, 25 °C, 150 mM NaCl, TBS-P: 20 mM Tris. This is another data set of the same source.

Soluble recombinant FcαRI ectodomain, sequence (P24071 22-227): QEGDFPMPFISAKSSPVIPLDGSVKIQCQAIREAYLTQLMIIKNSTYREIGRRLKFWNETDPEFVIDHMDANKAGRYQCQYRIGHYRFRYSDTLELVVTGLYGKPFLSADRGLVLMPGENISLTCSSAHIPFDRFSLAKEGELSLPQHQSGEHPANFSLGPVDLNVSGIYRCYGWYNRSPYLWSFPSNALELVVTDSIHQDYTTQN

In assay [1], “Soluble recombinant FcαRI ectodomain (from UniProt P24071 22-227) (receptor)” gave a KD1 (two-site equilibrium model) of 47.6 nM, a KD2 (second binding event) of 195 nM, a KD2 (two-site equilibrium model) of 371 nM and a k1off (first binding event) of 0.0254 s⁻¹. Also, in [1], the k1on (first binding event) amounted to 312000 M/s, the k2off (second binding event) is 0.102 s⁻¹ and the k2on (second binding event) came out at 525000 M/s. In assay [2], this substance had a KD1 (first binding event) of 74.9 nM, a KD1 (two-site equilibrium model) of 40.2 nM, a KD1 at pH 5.5 (first binding event) of 837 nM and a KD2 (second binding event) of 244 nM. For the same substance, in assay [2], the KD2 (two-site equilibrium model) was found to be 452 nM, the KD2 at pH 5.5 (second binding event) stood at 2.53 μM, the k1off (first binding event) stood at 0.0266 s⁻¹ and the k1on (first binding event) is 355000 M/s. This substance also displayed a k2on (second binding event) in [2] of 304000 M/s. Moreover, in assay [3], the KD1 (first binding event) stood at 72.3 nM, the KD1 (two-site equilibrium model) was determined as 40.8 nM, the KD2 (second binding event) stood at 222 nM and the KD2 (two-site equilibrium model) was 403 nM. Further, in [4], the KD1 (two-site equilibrium model) amounted to 42.6 nM and the KD2 (two-site equilibrium model) is 582 nM. Further, in [5], the KD1 (two-site equilibrium model) came to 45 nM and the KD2 (two-site equilibrium model) is 571 nM. Also, in [6], the KD1 (first binding event) stood at 78.4 nM, the KD2 (second binding event) was determined as 320 nM, the k1off (first binding event) came out at 0.0258 s⁻¹ and the k1on (first binding event) stood at 329000 M/s. The same substance registered a k2on (second binding event) in [6] of 187000 M/s. In addition, in assay [7], the k1off (first binding event) turned out to be 0.0267 s⁻¹, the k1on (first binding event) was found to be 317000 M/s and the k2on (second binding event) turned out to be 315000 M/s.
Take FcαRI (CD89) soluble ectodomain: in assay [8], the k1off was found to be 0.0266 s⁻¹, the k1on was 355000 M/s, the k2off turned out to be 0.074 s⁻¹ and the k2on amounted to 304000 M/s. For the same substance, in [9], the k1off stood at 0.0278 s⁻¹, the k1on came out at 461000 M/s, the k2off came out at 0.054 s⁻¹ and the k2on was 447000 M/s. In addition, in [10], the k1off stood at 0.0267 s⁻¹, the k1on worked out at 317000 M/s, the k2off came to 0.096 s⁻¹ and the k2on amounted to 315000 M/s.
